Biological target: PAM1.4 Fab (human) (UniProt P01834)
Test: ELISA

For “recombinant full-length VAR2CSA (variant FCR3), full ectodomain (domain or fragment)”, the Kd was 12 nM.
